Assay results: patent US20120149060A1 (EUROPAISCHES LABORATORIUM FUR MOLEKULARBIOLOGIE EMBL, published 2012)
One block for each binder: values may come before it.

Assays:
[1] = target: T1, Von Hippel Lindau protein (amino acids 54-213), fused at its N-terminus to a six-histidine-thioredoxin fusion … (human, UniProt P40337 54-213); experiment: co-expression in E. coli, Ni2+ affinity capture by the tag on VHL, SDS-PAGE
T1 construct: range 54-213; Subunit of the VHLbc complex, expressed from the pACE-VHLbc tricistron; also called VHL; HisTrxVHL; not shown: N-terminal six-histidine-thioredoxin fusion tag

[2] = target: T2, full-length human RAP74 with a C-terminal oligo-histidine tag (human, UniProt P35269 1-517); experiment: co-expression in E. coli, Ni2+ capture by the His tag on RAP74, then S200 size exclusion chromatography
T2 construct: Stated to be full-length; co-expressed with RAP30 in E. coli BL21(DE3); also called hRAP74; RAP74his; not shown: C-terminal oligo-histidine tag
T2 sequence (looked up): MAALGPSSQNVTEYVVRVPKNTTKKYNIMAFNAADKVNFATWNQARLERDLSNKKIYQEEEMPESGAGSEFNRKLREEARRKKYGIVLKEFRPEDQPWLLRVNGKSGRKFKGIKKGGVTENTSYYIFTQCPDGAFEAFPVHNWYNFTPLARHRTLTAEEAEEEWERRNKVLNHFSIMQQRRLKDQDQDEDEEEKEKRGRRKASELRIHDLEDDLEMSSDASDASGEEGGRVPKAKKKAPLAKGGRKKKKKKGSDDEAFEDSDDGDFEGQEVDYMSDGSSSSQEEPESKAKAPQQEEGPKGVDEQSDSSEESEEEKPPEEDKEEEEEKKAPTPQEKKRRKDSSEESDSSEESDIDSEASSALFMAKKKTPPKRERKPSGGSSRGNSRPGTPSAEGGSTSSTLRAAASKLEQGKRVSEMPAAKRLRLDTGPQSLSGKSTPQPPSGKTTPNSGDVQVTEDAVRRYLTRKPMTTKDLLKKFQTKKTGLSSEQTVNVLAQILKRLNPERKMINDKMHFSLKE

[3] = target: T3, Bud13p (yeast, UniProt P46947 1-266); experiment: co-expression in E. coli, Ni2+ capture by the His6 tag on Snu17p, then S200 size exclusion chromatography
T3 construct: Stated to be full-length; subunit of the yeast RES complex
T3 sequence (looked up): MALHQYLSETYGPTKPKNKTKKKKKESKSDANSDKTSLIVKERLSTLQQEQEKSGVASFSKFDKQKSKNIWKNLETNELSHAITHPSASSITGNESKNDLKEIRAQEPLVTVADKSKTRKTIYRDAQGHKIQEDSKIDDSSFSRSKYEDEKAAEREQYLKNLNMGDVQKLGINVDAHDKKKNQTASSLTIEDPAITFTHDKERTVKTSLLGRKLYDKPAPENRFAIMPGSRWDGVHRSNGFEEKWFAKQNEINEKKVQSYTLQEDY

[4] = target: T4, Pml1p (yeast, UniProt Q07930 1-204); experiment: as above
T4 construct: Stated to be full-length; subunit of the yeast RES complex; also called Pm1lp
T4 sequence (looked up): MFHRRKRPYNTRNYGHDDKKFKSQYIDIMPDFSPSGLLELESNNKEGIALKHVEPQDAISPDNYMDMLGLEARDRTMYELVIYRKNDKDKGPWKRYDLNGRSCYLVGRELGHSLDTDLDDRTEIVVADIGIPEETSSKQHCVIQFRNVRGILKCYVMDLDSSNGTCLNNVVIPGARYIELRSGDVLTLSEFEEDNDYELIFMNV

T1 sequence (P40337 54-213): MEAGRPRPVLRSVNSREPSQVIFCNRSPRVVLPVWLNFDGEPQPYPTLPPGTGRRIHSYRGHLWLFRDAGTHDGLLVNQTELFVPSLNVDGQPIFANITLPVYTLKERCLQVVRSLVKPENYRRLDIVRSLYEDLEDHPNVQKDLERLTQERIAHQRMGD

binding result [1]: binds
B1: full-length elongin b (other, human, UniProt Q15370 1-118, looked up)
chain: MDVFLMIRRHKTTIFTDAKESSTVFELKRIVEGILKRPPDEQRLYKDDQLLDDGKTLGECGFTSQTARPQAPATVGLAFRADDTFEALCIEPFSSPPELPDVMKPQDSGSSANEQAVQ
notes: Stated to be full-length

binding result [2]: binds
B2: full-length human RAP30 (other, UniProt P13984 1-249, looked up)
chain: MAERGELDLTGAKQNTGVWLVKVPKYLSQQWAKASGRGEVGKLRIAKTQGRTEVSFTLNEDLANIHDIGGKPASVSAPREHPFVLQSVGGQTLTVFTESSSDKLSLEGIVVQRAECRPAASENYMRLKRLQIEESSKPVRLSQQLDKVVTTNYKPVANHQYNIEYERKKKEDGKRARADKQHVLDMLFSAFEKHQYYNLKDLVDITKQPVVYLKEILKEIGVQNVKGIHKNTWELKPEYRHYQGEEKSD
notes: Stated to be full-length; also called hRAP30

binding result [3]: binds | binding result [4]: binds
B3: His6-tagged Snu17p (other, yeast, UniProt P40565 1-148, looked up)
chain: MNKIQQINDKELQSGILSPHQSWHNEYKDNAYIYIGNLNRELTEGDILTVFSEYGVPVDVILSRDENTGESQGFAYLKYEDQRSTILAVDNLNGFKIGGRALKIDHTFYRPKRSLQKYYEAVKEELDRDIVSKNNAEKLILAKKDQPN
notes: Stated to be full-length; subunit of the yeast RES complex; also called Snu17p-NHis; not shown: six-histidine tag fused to the N-terminus
